The supplement of paper PMC11780869

Tested on: Bacillus subtilis
Test: cleaved RNA product abundance (RNA/gDNA barcode ratio) relative to median wild-type variant (ratio to wild type); higher = more accumulation of the downstream cleavage product
How it was run: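 Reporter mRNAs based on truncated aprE or tetM carried barcoded, mutagenized RNase Y cleavage-site windows built from oligos with a 9% error rate and were integrated into the B. subtilis chromosome. Cultures grew in LB at 37°C from OD600 0.0003 to 0.3. Cleaved RNA was gel-selected, reverse transcribed and barcode-sequenced together with genomic DNA barcodes, and UMIs were collapsed. Cleaved product abundance is the per-construct ratio of RNA to gDNA barcodes, scaled to the median of constructs carrying the unmutated site.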

[1] = experiment (reporter, strain, medium): exp 8a: truncated aprE reporter, strain BJT201 with 2% xylose (RNase J1 expressed), cleavage site: glnRA (positions -5 to +31 mutated)
[2] = experiment (reporter, strain, medium): exp 4a: truncated aprE reporter, strain BJT201 with 2% xylose (RNase J1 expressed), cleavage site: cggR-gapA (positions -7 to +36 mutated)
[3] = experiment (reporter, strain, medium): exp 2b: truncated aprE reporter, strain BJT200, cleavage site: cggR-gapA (positions -7 to +36 mutated)

## CGACATGTCCCGCTTCTTTCATTAATCCGTTAGAAACTGTTGTGCTATATACATTTACCTTTTAAGAGGAGGAAT
[1]
  cleaved RNA product abundance: 0.361

## ACAGACGAAGGAGCCGCAAAGAAGTTATTAACGGATGAATAATCCCTCTATATAAATATCTCTCACTTATTTAAA
[2]
  cleaved RNA product abundance: 0.133

## CGACATGTCCCGCTTCTTTCATTAATCCGTTAGCAACTGTTTTGCTATATACATATACATTTTAAGAGGAGGAAT
[1]
  cleaved RNA product abundance: 0.68

## ACAGACGAAGGAGCCGCAAAGAAGTTATTTAGGGAAGAATAATCCCTCAATATAAATATCTCTCACTTATTTAAA
[2]
  cleaved RNA product abundance: 0.572

## ACAGACGAAGGAGCCGCAAAGAAGTTATTAAGGGATGAATAATGCCTCTATATAAATATCTCTCACTTATTTAAA
[3]
  cleaved RNA product abundance: 0.111

## ACAGACGAAGGAGCCGCAAAGAACTTATTAAGGGATGAATAATCCCTCGATATAAATATCTCTCACTTATTTAAA
[2]
  cleaved RNA product abundance: 0.269

## ACAGACGAAGGAGCCGCAAAGACGTTATTAAGGGATGAATAATCCCTCGATATAAATATCTCTCACTTATTTAAA
[2]
  cleaved RNA product abundance: 0.386

## ACAGACGAAGGAGCCGCAAAGAAGTTATTAAGGGATGAATAATCCCACAATATAAATATCTCTCACTTATTTAAA
[3]
  cleaved RNA product abundance: 0.204
[2]
  cleaved RNA product abundance: 0.279
Experiment (reporter, strain, medium): exp 6: tetM reporter, strain 168, cleavage site: cggR-gapA (positions -7 to +36 mutated)
  cleaved RNA product abundance: 0.271

## ACAGACGAAGGAGCCGCAAAGAAGTTATTAAGCGATGAATAATCCATCAATATAAATATCTCTCACTTATTTAAA
[3]
  cleaved RNA product abundance: 0.121
[2]
  cleaved RNA product abundance: 0.154

## ACAGACGAAGGAGCCGCAAAGAAGATATTAAGGAATGAATAATCCCTCAATATAAATATCTCTCACTTATTTAAA
[3]
  cleaved RNA product abundance: 0.12
[2]
  cleaved RNA product abundance: 0.175

## CGACATGTCCCGCTTCTTTCATTATTCCGTTAGCAACTGTTTTGCTTTATACATTTACCTTTTAAGAGGAGGAAT
[1]
  cleaved RNA product abundance: 0.401

## ACAGACGAAGGAGCCGCAAACAAGTTATTAAGGGACGAATAATCCCTCAATATAAATATCTCTCACTTATTTAAA
[2]
  cleaved RNA product abundance: 0.279

## ACAGACGAAGGAGCCGCAAAGAAGTAATTAAGGGATGAATAAGCCCTCAATATAAATATCTCTCACTTATTTAAA
[2]
  cleaved RNA product abundance: 0.149

## ACAGACGAAGGAGCCGCAAAGAAGTTATTAAGGGATGAATTATCCATCAATATAAATATCTCTCACTTATTTAAA
[3]
  cleaved RNA product abundance: 0.163
[2]
  cleaved RNA product abundance: 0.144

## CGACATGTCCCGCTTCTTTCATTAATCCGTTACCAACTGTTATGCTATATACATTTACCTTTTAAGAGGAGGAAT
[1]
  cleaved RNA product abundance: 0.307

## ACAGACGAAGGAGCCGCTAAGAAGTGATTAAGGGATGAATAATCCCTCAATATAAATATCTCTCACTTATTTAAA
[2]
  cleaved RNA product abundance: 0.419

## ACAGACGAAGGAGCCGCAAGGAAGTTATTAAGGTATGAATAATCCCTCAATATAAATATCTCTCACTTATTTAAA
[2]
  cleaved RNA product abundance: 0.101

## ACAGACGAAGGAGCCGCAAAGAAGTTATTAACGGATGAATATTCCCTCAATATAAATATCTCTCACTTATTTAAA
[2]
  cleaved RNA product abundance: 0.138

## CGACATGTCCCGCTTCTTTCATTAATCAGTGAGCAACTGTTTTGCTATATACATTTACCTTTTAAGAGGAGGAAT
[1]
  cleaved RNA product abundance: 0.37

## ACAGACGAAGGAGCCGCAAAGAAGTTATAAAGGAATGAATAATCCCTCAATATAAATATCTCTCACTTATTTAAA
[3]
  cleaved RNA product abundance: 0.0926
[2]
  cleaved RNA product abundance: 0.124

## ACAGACGAAGGAGCCGCAAAGAAGTGATTAAGGTATGAATAATCCCTCAATATAAATATCTCTCACTTATTTAAA
[3]
  cleaved RNA product abundance: 0.0827
[2]
  cleaved RNA product abundance: 0.113

## ACAGACGAAGGAGCCGCACAGAAGTTATTAAGGGTTGAATAATCCCTCAATATAAATATCTCTCACTTATTTAAA
[2]
  cleaved RNA product abundance: 0.473

## CGACATGTCCCGCTTCTTTCATTAATCCGTTGGCAACTGTTTTGCTATGTACATTTACCTTTTAAGAGGAGGAAT
[1]
  cleaved RNA product abundance: 0.1

## ACAGACGAAGGAGCCGCAACGAAGTTATTAAGGGATGAATACTCCCTCAATATAAATATCTCTCACTTATTTAAA
[2]
  cleaved RNA product abundance: 0.55

## CGACATGTCCCGCTTCTTTCATTAATCCGTTAGCAAGTGTTTTGTTATATACATTTACCTTTTAAGAGGAGGAAT
[1]
  cleaved RNA product abundance: 0.21

## ACAGACGAAGGAGCCGCAAAGAATTTATTAAGGGATGAACAATCCCTCAATATAAAAATCTCTCACTTATTTAAA
[2]
  cleaved RNA product abundance: 0.8

## ACAGACGAAGGAGCCGCAAAAAATTTATTAAGGGATGAATAATCCCTCAATATAAATATCTCTCACTTATTTAAA
[3]
  cleaved RNA product abundance: 1.19
[2]
  cleaved RNA product abundance: 0.66

## CGACATGTCCCGCTTCTTTCATTAATCCGTTAGCATCTGTTTTGCTATATAGATTTACCTTTTAAGAGGAGGAAT
[1]
  cleaved RNA product abundance: 0.899

## CGACATGTCCCGCTTCTTTCATTAATCCGTTAGCAACTGTTTTGTTATATACATTTAACTTTTAAGAGGAGGAAT
[1]
  cleaved RNA product abundance: 0.617

## CGACATGTCCCGCTTCTTTCATTAATCCGTCAGCAACTGTTTTGCTATATACATTTACCTTTTAAGAGGAGGAAT
[1]
  cleaved RNA product abundance: 0.406

## ACAGACGAAGGAGCCGCAAAGAAGTTATTAAGGGATGCATAATCCCTCAATTTAAATATCTCTCACTTATTTAAA
[3]
  cleaved RNA product abundance: 0.177

## ACAGACGAAGGAGCCGCAAAGAAGTTATTAAGGGATGAATGATCCCTCAAAATAAATATCTCTCACTTATTTAAA
[3]
  cleaved RNA product abundance: 0.14
[2]
  cleaved RNA product abundance: 0.149

## CGACATGTCCCGCTTCTTTCATTACTCTGTTAGCAACTGTTTTGCTATATACATTTACCTTTTAAGAGGAGGAAT
[1]
  cleaved RNA product abundance: 0.791

## CGACATGTCCCGCTTCTTTCATTAATCCGTTAGCAACTGTTTTGCTATATACATATACCTTTTAAGAGGAGGAAT
[1]
  cleaved RNA product abundance: 1.04

## ACAGACGAAGGAGCCGCAAAGACGTTATTAAGGGATGAATAAACCCTCAATATAAATATCTCTCACTTATTTAAA
[2]
  cleaved RNA product abundance: 0.312

## ACAGACGAAGGAGCCGCAAAGAAGTTATTAAGGGATGTATAATCCCTCAGTATAAATATCTCTCACTTATTTAAA
[3]
  cleaved RNA product abundance: 0.218
[2]
  cleaved RNA product abundance: 0.237

## ACAGACGAAGGAGCCGCAAAGAAGTTATTAAGGGATAAATAATGCCTCAATATAAATATCTCTCACTTATTTAAA
[2]
  cleaved RNA product abundance: 0.0991

## CGACATGTCCCGCTTCTTTCATTAATCCGTTAGTAACTGTTTTGCTAAATACATTTACCTTTTAAGAGGAGGAAT
[1]
  cleaved RNA product abundance: 0.496

## ACAGACGAAGGAGCCGCAAAGAAGTTATTAAGAGATGAATAATACCTCAATATATATATCTCTCACTTATTTAAA
[2]
  cleaved RNA product abundance: 0.174

## ACAGACGAAGGAGCCGCAAAGAAATTTTTAAGGGATGAATAATCCCTCAATATAAATATCTCTCACTTATTTAAA
[3]
  cleaved RNA product abundance: 0.206
[2]
  cleaved RNA product abundance: 0.264

## ACAGACGAAGGAGCCGCAAAGAAGTTATTAAGGCATGAATAATCTCTCAATATAAATATCTCTCACTTATTTAAA
[3]
  cleaved RNA product abundance: 0.0853
[2]
  cleaved RNA product abundance: 0.125

## CGACATGTCCCGCTTCTTTCATTAATCCGTTAGCAACTCTTTTGCTATATACATTTACCTTTTAAGAGGAGGAAT
[1]
  cleaved RNA product abundance: 1.15

## CGACATGTCCCGCTTCTTTCATTATTCCGTTAGCAACTATTTTTCTATATACATTTACCTTTTAAGAGGAGGAAT
[1]
  cleaved RNA product abundance: 0.956

## CGACATGTCCCGCTTCTTTCATTAAACCCTTAGCAACTGTTTTGCTATATACATTTACCTTTTAAGAGGAGGAAT
[1]
  cleaved RNA product abundance: 0.18

## ACAGACGAAGGAGCCGCAAAGAAGTTATTAAGGGAGGAATAATCCATCAATATAAATATCTCTCACTTATTTAAA
[2]
  cleaved RNA product abundance: 0.209

## ACAGACGAAGGAGCCGCAAAGAAGTTATTAAGGGAAGAATAATCCCTCATTATAAATATCTCTCACTTATTTAAA
[3]
  cleaved RNA product abundance: 0.208
[2]
  cleaved RNA product abundance: 0.216

## ACAGACGAAGGAGCCGCAAAAAAGTTCTTAAGGGATGAATAATCCCTCAATATAAATATCTCTCACTTATTTAAA
[2]
  cleaved RNA product abundance: 0.218
